T1: His-tagged HM1.24 antigen, residues N49-A163 of the extracellular domain (human, UniProt Q10589 49-163)
T1 construct: Expressed in 293T cells, purified by Ni-NTA; not shown: N-terminal His-tag and Factor Xa cleavage site
T1 sequence: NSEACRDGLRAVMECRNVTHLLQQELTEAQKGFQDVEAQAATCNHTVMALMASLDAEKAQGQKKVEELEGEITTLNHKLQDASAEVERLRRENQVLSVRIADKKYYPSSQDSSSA


Experiments:
[1] = biological target: T1, His-tagged HM1.24 antigen, residues …; test: Biacore (SPR): His-tagged HM1.24 antigen coupled directly to the chip (NHS chemistry), antibody as analyte; simultaneous (global Langmuir) fitting
Source text: (§1) FIG. 17. Binding of anti-HM1.24 antibodies to HM1.24 antigen monitored by Biacore. In this format, HM1.24 antigen was coupled directly to the chip, and antibodies at multiple concentrations were used as analyte in this format.

[2] = biological target: T1, His-tagged HM1.24 antigen, residues …; test: Biacore (SPR): His-tagged HM1.24 antigen coupled directly to the chip (NHS chemistry), antibody as analyte; separate kd and ka fitting
Source text: as §1

koff [1] [s⁻¹]	kon [1] [M⁻¹ s⁻¹]	koff [2] [s⁻¹]	kon [2] [M⁻¹ s⁻¹]	Binder
2.03e-05	754000	4.49e-05	782000	HM1.24_H1L2 (antibody, human IgG1, kappa, V domains shown, also called H1 and L2 combination) VH: QVQLVQSGAEVKKPGASVKVSCKASGYTFTPYWMQWVRQAPGQGLEWMGSIFPGDGDTRYSQSFQGQVTISADKSISTAYMELSRLRSDDTAVYYCARGLRRGGYYFDYWGQGTLVTVSS VL: DIVMTQSPSSLSASVGDRVTITCQASQDVNTAVAWYQQKPDQSPKLLIYSASNRYTGVPDRITGSGSGTDFTLTISSLQAEDVAVYYCQQHYSTPFTFGSGTKLEIKR
4.03e-05	772000	5.5e-05	863000	HM1.24_H0L0 IgG1 S239D/I332E (antibody) heavy: not shown light: DIVMTQSHKFMSTSVGDRVSITCKASQDVNTAVAWYQQKPGQSPKLLIYSASNRYTGVPDRITGSGSGTDFTFTISSVQAEDLALYYCQQHYSTPFTFGSGTKLEIKRTVAAPSVFIFPPSDEQLKSGTASVVCLLNNFYPREAKVQWKVDNALQSGNSQESVTEQDSKDSTYSLSSTLTLSKADYEKHKVYACEVTHQGLSSPVTKSFNRGEC

More lines, now with the values behind:

Binder	koff [1] [s⁻¹]	kon [1] [M⁻¹ s⁻¹]	koff [2] [s⁻¹]	kon [2] [M⁻¹ s⁻¹]
HM1.24_H1L4 (antibody, V domains shown, also called H1 and L4 combination; parent H1 antibody) VH: QVQLVQSGAEVKKPGASVKVSCKASGYTFTPYWMQWVRQAPGQGLEWMGSIFPGDGDTRYSQSFQGQVTISADKSISTAYMELSRLRSDDTAVYYCARGLRRGGYYFDYWGQGTLVTVSS VL: DIVMTQSPLSLPVTLGQPASISCKASQDVNTAVAWYLQKPGKSPKLLIYSASNRYTGVPDRITGSGSGTDFTLKISRVEAEDVGVYYCQQHYSTPFTFGSGTKLEIKR	3.18e-05	834000	5.53e-05	966000
Antibody comprising the HM1.24_H1.2 heavy chain variant and the HM1.24_L4 light chain (antibody, human IgG1, kappa, V domains shown) VH: QVQLVQSGAEVKKPGASVKVSCKASGYTFTPYWMQWVRQAPGQGLEWMGSIFPGSGDTRYSQSFQGQVTISADKSISTAYMELSRLRSDDTAVYYCARGLRRGGYYFDYWGQGTLVTVSS VL: DIVMTQSPLSLPVTLGQPASISCKASQDVNTAVAWYLQKPGKSPKLLIYSASNRYTGVPDRITGSGSGTDFTLKISRVEAEDVGVYYCQQHYSTPFTFGSGTKLEIKR	7.99e-05	1.29e+06	9.54e-05	1.34e+06
HM1.24_H0L0_IgG1_WT (antibody, also called WT anti-HM1.24 antibody; parent HM1.24_H0L0_IgG1 WT antibody) heavy: not shown light: DIVMTQSHKFMSTSVGDRVSITCKASQDVNTAVAWYQQKPGQSPKLLIYSASNRYTGVPDRITGSGSGTDFTFTISSVQAEDLALYYCQQHYSTPFTFGSGTKLEIKRTVAAPSVFIFPPSDEQLKSGTASVVCLLNNFYPREAKVQWKVDNALQSGNSQESVTEQDSKDSTYSLSSTLTLSKADYEKHKVYACEVTHQGLSSPVTKSFNRGEC	3.57e-05	699000	4.4e-05	820000

From US20100104557A1 (Xencor, published 2010)
